Assay results: patent US12303551B2, “Cellular immunotherapy compositions and uses thereof” (CERO THERPEUTICS HOLDINGS, INC., priority 2018, dated 2025)

B1: CER104: Chimeric engulfment receptor: Tim4 binding, Tim4 transmembrane, TLR8 and DAP12 signaling; SEQ ID NO: 139 (protein)
chain: MSKGLLLLWLVTELWWLYLTPAASEDTIIGFLGQPVTLPCHYLSWSQSRNSMCWGKGSCPNSKCNAELLRTDGTRIISRKSTKYTLLGKVQFGEVSLTISNTNRGDSGVYCCRIEVPGWFNDVKKNVRLELRRATTTKKPTTTTRPTTTPYVTTTTPELLPTTVMTTSVLPTTTPPQTLATTAFSTAVTTCPSTTPGSFSQETTKGSAFTTESETLPASNHSQRSMMTISTDIAVLRPTGSNPGILPSTSQLTTQKTTLTTSESLQKTTKSHQINSRQTILIIACCVGFVLMVLLFLAFLHHLFYWDVWFIYNVCLAKVKGYRSLSTSQTFYDAYISYDTKDASVTDWVINELRYHLEESRDKNVLLCLEERDWDPGLAIIDNLMQSINQSKKTVFVLTKKYAKSWNFKTAFYLALQRLMDENMDVIIFILLEPVLQHSQYLRLRQRICKSSILQWPDNPKAEGLFWQTLRNVVLTENDSRYNNMYVDSIKQYYFLGRLVPRGRGAAEAATRKQRITETESPYQELQGQRSDVYSDLNTQRPYYK
modifications: CER104, amino acids 1-22 are signal peptide
B2: CER117: Chimeric engulfment receptor: Tim4 binding, Tim4 transmembrane, TLR8 and TRAF6 signaling; SEQ ID NO: 153 (protein)
chain: MSKGLLLLWLVTELWWLYLTPAASEDTIIGFLGQPVTLPCHYLSWSQSRNSMCWGKGSCPNSKCNAELLRTDGTRIISRKSTKYTLLGKVQFGEVSLTISNTNRGDSGVYCCRIEVPGWFNDVKKNVRLELRRATTTKKPTTTTRPTTTPYVTTTTPELLPTTVMTTSVLPTTTPPQTLATTAFSTAVTTCPSTTPGSFSQETTKGSAFTTESETLPASNHSQRSMMTISTDIAVLRPTGSNPGILPSTSQLTTQKTTLTTSESLQKTTKSHQINSRQTILIIACCVGFVLMVLLFLAFLHHLFYWDVWFIYNVCLAKVKGYRSLSTSQTFYDAYISYDTKDASVTDWVINELRYHLEESRDKNVLLCLEERDWDPGLAIIDNLMQSINQSKKTVFVLTKKYAKSWNFKTAFYLALQRLMDENMDVIIFILLEPVLQHSQYLRLRQRICKSSILQWPDNPKAEGLFWQTLRNVVLTENDSRYNNMYVDSIKQYMSLLNCENSCGSSQSESDCCVAMASSCSAVTKDDSVGGTASTGNLSSSFMEEIQGYDVEFDPPLESKYECPICLMALREAVQTPCGHRFCKACIIKSIRDAGHKCPVDNEILLENQLFPDNFAKREILSLMVKCPNEGCLHKMELRHLEDHQAHCEFALMDCPQCQRPFQKFHINIHILKDCPRRQVSCDNCAASMAFEDKEIHDQNCPLANVICEYCNTILIREQMPNHYDLDCPTAPIPCTFSTFGCHEKMQRNHLARHLQENTQSHMRMLA
modifications: CER117, amino acids 1-22 are signal peptide
B3: CER116: Chimeric engulfment receptor: Tim4 binding, Tim4 transmembrane, TRAF6 and TLR8 signaling; SEQ ID NO: 152 (protein)
chain: MSKGLLLLWLVTELWWLYLTPAASEDTIIGFLGQPVTLPCHYLSWSQSRNSMCWGKGSCPNSKCNAELLRTDGTRIISRKSTKYTLLGKVQFGEVSLTISNTNRGDSGVYCCRIEVPGWFNDVKKNVRLELRRATTTKKPTTTTRPTTTPYVTTTTPELLPTTVMTTSVLPTTTPPQTLATTAFSTAVTTCPSTTPGSFSQETTKGSAFTTESETLPASNHSQRSMMTISTDIAVLRPTGSNPGILPSTSQLTTQKTTLTTSESLQKTTKSHQINSRQTILIIACCVGFVLMVLLFLAFLMSLLNCENSCGSSQSESDCCVAMASSCSAVTKDDSVGGTASTGNLSSSFMEEIQGYDVEFDPPLESKYECPICLMALREAVQTPCGHRFCKACIIKSIRDAGHKCPVDNEILLENQLFPDNFAKREILSLMVKCPNEGCLHKMELRHLEDHQAHCEFALMDCPQCQRPFQKFHINIHILKDCPRRQVSCDNCAASMAFEDKEIHDQNCPLANVICEYCNTILIREQMPNHYDLDCPTAPIPCTFSTFGCHEKMQRNHLARHLQENTQSHMRMLAHHLFYWDVWFIYNVCLAKVKGYRSLSTSQTFYDAYISYDTKDASVTDWVINELRYHLEESRDKNVLLCLEERDWDPGLAIIDNLMQSINQSKKTVFVLTKKYAKSWNFKTAFYLALQRLMDENMDVIIFILLEPVLQHSQYLRLRQRICKSSILQWPDNPKAEGLFWQTLRNVVLTENDSRYNNMYVDSIKQY
modifications: CER116, amino acids 1-22 are signal peptide

How the values were obtained:
[1] = system: SCC152 HPV+ Head & Neck Squamous Carcinoma; assay: SCC152 xenograft in NSG mice, tumor caliper measurements; assay type: in vivo; conditions: 3×10^6 CER CD4+ T cells added to 1×10^6 E7 TCR CD8+ T cells; versus E7 TCR CD8+ T cells alone
Text: 1×10^^6 CD8^+ T cells engineered with a HPV E7 specific TCR were infused with or without 3×10^6 CD4+ T cells engineered with CER104. Data represents mean value of tumor caliper measurements (n=5 mice per group).
Cellular immunotherapy composition combination comprising HPV E7 specific TCR modified CD8+ T cells (1×10^6) (as described in Example 1) and hCER104 modified CD4+ T cells (3×10^6) were infused into head neck squamous cell cancer mouse model generated by injecting HPV+ SCC152 cells into NSG mice and compared with SCC152 xenograft mice treated with HPV E7 specific TCR modified CD8+ T cells alone (n=5 mice/treatment group).

[2] = system: SCC152 target cells; assay: Lactate dehydrogenase (LDH) cytotoxicity assay in SCC152 co-culture; assay type: cell-based; conditions: CD4+/CER + CD8+/HPV16 E7 TCR 1:1; 4 hours co-culture, varying target:effector ratios
Description: FIG. 19 is a bar graph showing a lactate dehydrogenase (LDH) cytotoxicity assay performed 4 hours after co-culture of CD8+ T cells transduced with a HPV16 E7 TCR and CD4+ T cells transduced with CER104 at a 1:1 ratio with SCC152 target cells at varying target cell:effector cell ratios (0.5:1, 1:1, 1:2.5, 1:5, 1:10, 1:20).
LDH is a cytosolic enzyme that is released by a cell into cell culture media when the plasma membrane is damaged. Thus, LDH's presence in culture medium is a marker for cell death. LDH assays are capable of detecting low level damage to cell membrane which cannot be detected using other methods. LDH may be detected using colorimetric or fluorometric methods.

[3] = system: SCC152 target cells; assay: Phagocytosis of SCC152 by CD4+ T cell/CER, fluorescence microscopy with hybrid capture; assay type: cell-based; conditions: TRAF-domain CERs, 4 hours, 1:1:0.5 (CD8:CD4:target cell); versus CD4+ control + CD8+/E7 TCR
Description: (§1) FIG. 28 is a bar graph representing quantification of CD4+ T cell-CER mediated phagocytosis of SCC152 target cells. Results calculated as ((number of phagocytic target events)/(total number of effectors))*100 from 3×3 40× images, 4 hours after initiation of co-culture assay. CD8+ T cells transduced with HPV16 E7 TCR and CD4+ T cells transduced with selected CERs (CER5, CER17, CER19, CER21, CER23, CER26, CER27, CER103b, CER104, CER105, CER106, or CER116) were co-cultured with SCC152 squamous head and neck carcinoma target cells at a 1:1:0.5 ratio for 4 hours and imaged.
as §1, with “29” for “28”, “(median area ratio” for “((number”, “of” for “of phagocytic”, “events in effector cells*% phagocytosis)” for “events)/(total number of effectors))*100”
(§2) FIG. 55 is a bar graph representing quantification of CD4+ T cell-CER mediated phagocytosis of SCC152 target cells. Percent phagocytosis was calculated as ((number of phagocytic target events)/(total number of effector cells))*100. These numbers were calculated from 3×3 images captured by Keyence BZ-X710 fluorescence microscope at 40× resolution, 4 hours after initiation of co-culture assay. CD8+ T cells transduced with HPV16 E7 TCR and CD4+ T cells transduced with a selected CER (CER29, CER30, CER110, CER112, CER113, CER114, CER116, or CER117) were co-cultured with SCC152 target cells at a 1:1:0.5 ratio (CD8:CD4:target cell) for 4 hours and imaged.
as §2, with “56” for “55”, “Adjusted phagocytic index” for “Percent phagocytosis”, “(median area ratio” for “((number”, “of” for “of phagocytic”, “events in” for “events)/(total number of”, “cells*% phagocytosis).” for “cells))*100.”
Phagocytic activity of CD4+ T cell/CER+CD8+ T cell/HPV16 E7 TCR combinations co-cultured with SCC152 cells was visualized and quantified using KEYENCE BZ-X710 fluorescence microscope, […] and hybrid capture software.

Molecule	tumor killing (tumor volume by caliper) [1]	cytolytic activity (LDH release) [2]	engulfment of SCC152 target cells (percent phagocytosis, adjusted phagocytic index) [3]
B1	enhanced tumor killing in vivo	enhanced cytolytic activity	
B2			enhanced engulfment
B3			enhanced engulfment
